IntAct's records for PubMed 35512704

B1: Mothers against decapentaplegic homolog 4 (Homo sapiens), Q13485 (parent)
chain: MDNMSITNTPTSNDACLSIVHSLMCHRQGGESETFAKRAIESLVKKLKEKKDELDSLITAITTNGAHPSKCVTIQRTLDGRLQVAGRKGFPHVIYARLWRWPDLHKNELKHVKYCQYAFDLKCDSVCVNPYHYERVVSPGIDLSGLTLQSNAPSSMMVKDEYVHDFEGQPSLSTEGHSIQTIQHPPSNRASTETYSTPALLAPSESNATSTANFPNIPVASTSQPASILGGSHSEGLLQIASGPQPGQQQNGFTGQPATYHHNSTTTWTGSRTAPYTPNLPHHQNGHLQHHPPMPPHPGHYWPVHNELAFQPPISNHPAPEYWCSIAYFEMDVQVGETFKVPSSCPIVTVDGYVDPSGGDRFCLGQLSNVHRTEAIERARLHIGKGVQLECKGEGDVWVRCLSDHAVFVQSYYLDREAGRAPGDAVHKIYPSAYIKVFDLRQCHRQMQQQAATAQAAAAAQAAAVAGNIPGPGSVGGIAPAISLSAAAGIGVDDLRRLCILRMSFVKGWGPDYPRQSIKETPCWIEIHLHRALQLLDEVLHTMPIADPQPLD
partner: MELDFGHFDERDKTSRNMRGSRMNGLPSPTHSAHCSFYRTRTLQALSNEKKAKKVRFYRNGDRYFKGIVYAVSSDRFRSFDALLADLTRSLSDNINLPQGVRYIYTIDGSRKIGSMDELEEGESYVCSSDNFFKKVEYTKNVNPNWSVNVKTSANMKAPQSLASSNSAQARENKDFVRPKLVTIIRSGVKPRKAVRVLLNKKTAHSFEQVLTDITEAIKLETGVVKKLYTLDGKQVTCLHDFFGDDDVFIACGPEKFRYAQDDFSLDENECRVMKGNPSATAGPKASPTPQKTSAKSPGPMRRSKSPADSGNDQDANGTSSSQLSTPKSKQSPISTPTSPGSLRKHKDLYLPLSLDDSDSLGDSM
B2: Mothers against decapentaplegic homolog 4 (Homo sapiens), Q13485 (parent)
chain: B1 chain
partner: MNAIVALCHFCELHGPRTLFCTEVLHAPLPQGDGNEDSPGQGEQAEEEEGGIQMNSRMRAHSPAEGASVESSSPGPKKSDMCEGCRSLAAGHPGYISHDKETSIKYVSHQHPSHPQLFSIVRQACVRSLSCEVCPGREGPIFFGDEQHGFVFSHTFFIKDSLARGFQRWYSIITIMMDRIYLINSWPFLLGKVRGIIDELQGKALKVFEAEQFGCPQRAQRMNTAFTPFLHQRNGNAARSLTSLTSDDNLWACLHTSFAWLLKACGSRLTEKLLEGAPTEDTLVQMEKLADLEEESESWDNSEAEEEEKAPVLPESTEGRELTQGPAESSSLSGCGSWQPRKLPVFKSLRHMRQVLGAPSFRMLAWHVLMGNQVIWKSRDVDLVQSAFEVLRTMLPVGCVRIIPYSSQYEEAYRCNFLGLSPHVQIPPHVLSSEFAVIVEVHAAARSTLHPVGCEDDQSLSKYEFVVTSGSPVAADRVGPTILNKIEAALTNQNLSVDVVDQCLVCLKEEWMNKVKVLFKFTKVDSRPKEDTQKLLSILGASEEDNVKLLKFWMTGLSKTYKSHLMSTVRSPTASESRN
B3: Mothers against decapentaplegic homolog 4 (Homo sapiens), Q13485 (parent)
chain: B1 chain
partner: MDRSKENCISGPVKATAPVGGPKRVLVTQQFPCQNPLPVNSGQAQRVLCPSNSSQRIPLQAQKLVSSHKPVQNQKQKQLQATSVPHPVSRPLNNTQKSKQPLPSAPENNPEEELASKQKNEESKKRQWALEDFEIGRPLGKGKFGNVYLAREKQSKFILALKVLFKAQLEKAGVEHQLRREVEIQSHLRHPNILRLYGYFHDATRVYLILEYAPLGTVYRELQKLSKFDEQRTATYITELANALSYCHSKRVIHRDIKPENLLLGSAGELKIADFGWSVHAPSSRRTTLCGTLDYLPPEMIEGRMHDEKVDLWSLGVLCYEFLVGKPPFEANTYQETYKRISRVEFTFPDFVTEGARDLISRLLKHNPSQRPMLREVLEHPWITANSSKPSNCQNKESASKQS
B4: Mothers against decapentaplegic homolog 4 (Homo sapiens), Q13485 (parent)
chain: B1 chain
partner: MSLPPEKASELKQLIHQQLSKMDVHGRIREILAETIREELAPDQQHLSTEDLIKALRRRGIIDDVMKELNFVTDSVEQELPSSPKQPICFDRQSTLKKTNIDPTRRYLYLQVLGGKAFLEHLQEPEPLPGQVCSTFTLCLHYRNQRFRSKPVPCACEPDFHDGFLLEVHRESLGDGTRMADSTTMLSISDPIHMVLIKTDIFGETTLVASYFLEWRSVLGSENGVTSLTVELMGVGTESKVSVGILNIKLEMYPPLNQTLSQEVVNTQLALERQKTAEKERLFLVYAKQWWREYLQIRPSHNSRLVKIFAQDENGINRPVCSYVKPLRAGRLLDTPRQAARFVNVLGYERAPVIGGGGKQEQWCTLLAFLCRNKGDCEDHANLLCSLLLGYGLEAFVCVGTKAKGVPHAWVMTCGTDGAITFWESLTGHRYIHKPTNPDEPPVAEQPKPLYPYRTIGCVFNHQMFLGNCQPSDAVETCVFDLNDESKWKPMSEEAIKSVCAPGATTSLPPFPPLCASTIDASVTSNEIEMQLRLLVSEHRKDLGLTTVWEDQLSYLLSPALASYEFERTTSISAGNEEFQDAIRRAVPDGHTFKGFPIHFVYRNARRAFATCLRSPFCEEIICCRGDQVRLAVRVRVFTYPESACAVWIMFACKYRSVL
B5: Mothers against decapentaplegic homolog 4 (Homo sapiens), Q13485 (parent)
chain: B1 chain
partner: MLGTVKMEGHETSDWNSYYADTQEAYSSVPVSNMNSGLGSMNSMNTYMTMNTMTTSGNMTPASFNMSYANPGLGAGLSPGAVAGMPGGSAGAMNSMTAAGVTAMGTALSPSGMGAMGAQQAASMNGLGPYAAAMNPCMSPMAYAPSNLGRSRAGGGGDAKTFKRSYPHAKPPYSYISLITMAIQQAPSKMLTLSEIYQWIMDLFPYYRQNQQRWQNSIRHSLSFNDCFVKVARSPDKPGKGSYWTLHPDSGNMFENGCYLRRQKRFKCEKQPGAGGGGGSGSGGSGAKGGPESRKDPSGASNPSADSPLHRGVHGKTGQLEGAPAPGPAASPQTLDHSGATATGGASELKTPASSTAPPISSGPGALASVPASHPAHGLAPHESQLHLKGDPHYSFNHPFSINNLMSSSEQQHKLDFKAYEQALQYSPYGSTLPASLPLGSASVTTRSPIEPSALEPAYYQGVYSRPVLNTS
B6: Mothers against decapentaplegic homolog 4 (Homo sapiens), Q13485 (parent)
chain: B1 chain
partner: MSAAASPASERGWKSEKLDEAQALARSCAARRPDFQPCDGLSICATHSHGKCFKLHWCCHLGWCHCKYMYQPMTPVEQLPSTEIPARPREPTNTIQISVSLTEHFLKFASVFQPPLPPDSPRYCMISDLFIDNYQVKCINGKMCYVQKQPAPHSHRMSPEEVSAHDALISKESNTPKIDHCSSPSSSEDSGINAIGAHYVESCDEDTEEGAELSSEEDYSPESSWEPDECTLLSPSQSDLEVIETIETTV
B7: Mothers against decapentaplegic homolog 4 (Homo sapiens), Q13485 (parent)
chain: B1 chain
partner: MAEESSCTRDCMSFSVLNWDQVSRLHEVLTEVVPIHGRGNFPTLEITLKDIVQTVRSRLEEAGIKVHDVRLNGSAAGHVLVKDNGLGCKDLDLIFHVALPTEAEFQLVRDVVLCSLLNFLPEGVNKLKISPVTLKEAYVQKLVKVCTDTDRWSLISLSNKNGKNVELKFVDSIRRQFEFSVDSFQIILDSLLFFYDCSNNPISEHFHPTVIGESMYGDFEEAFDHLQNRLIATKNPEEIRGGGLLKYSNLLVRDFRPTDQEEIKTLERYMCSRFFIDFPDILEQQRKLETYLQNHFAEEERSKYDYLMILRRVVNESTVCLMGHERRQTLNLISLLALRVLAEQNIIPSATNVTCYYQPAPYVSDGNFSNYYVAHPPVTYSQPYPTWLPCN

Variants of: B1
Conditions: with dcx_human DCX

Variant | effect of a mutation on the interaction
G386D | with no effect

Variants of: B2
Conditions: with flcn_human FLCN

Variant | effect of a mutation on the interaction
D351H | with no effect

Variants of: B2
Conditions: with flcn_human FLCN
Remark: another data set of the same source

Variant | effect of a mutation on the interaction
G386D | with no effect

Variants of: B2
Conditions: with flcn_human FLCN
Remark: another data set of the same source

Variant | effect of a mutation on the interaction
R361C | with no effect

Variants of: B2
Conditions: with flcn_human FLCN
Remark: another data set of the same source

Variant | effect of a mutation on the interaction
R361H | with no effect

Variants of: B3
Conditions: with aurka_human AURKA

Variant | effect of a mutation on the interaction
R361C | with no effect

Variants of: B3
Conditions: with aurka_human AURKA
Remark: another data set of the same source

Variant | effect of a mutation on the interaction
R361H | with no effect

Variants of: B3
Conditions: with aurka_human AURKA
Remark: another data set of the same source

Variant | effect of a mutation on the interaction
D351H | with no effect

Variants of: B3
Conditions: with aurka_human AURKA
Remark: another data set of the same source

Variant | effect of a mutation on the interaction
G386D | with no effect

Variants of: B4
Conditions: with cep76_human CEP76, Q8TAP6

Variant | effect of a mutation on the interaction
D351H | with no effect

Variants of: B4
Conditions: with cep76_human CEP76, Q8TAP6
Remark: another data set of the same source

Variant | effect of a mutation on the interaction
R361C | with no effect

Variants of: B4
Conditions: with cep76_human CEP76, Q8TAP6
Remark: another data set of the same source

Variant | effect of a mutation on the interaction
R361H | with no effect

Variants of: B5
Conditions: with foxa1_human FOXA1, P55317

Variant | effect of a mutation on the interaction
G386D | with no effect

Variants of: B5
Conditions: with foxa1_human FOXA1, P55317
Remark: another data set of the same source

Variant | effect of a mutation on the interaction
R361H | with no effect

Variants of: B5
Conditions: with foxa1_human FOXA1, P55317
Remark: another data set of the same source

Variant | effect of a mutation on the interaction
R361C | with no effect

Variants of: B5
Conditions: with foxa1_human FOXA1, P55317
Remark: another data set of the same source

Variant | effect of a mutation on the interaction
D351H | with no effect

Variants of: B6
Conditions: with cc070_human C3orf70, A6NLC5

Variant | effect of a mutation on the interaction
R361C | with no effect

Variants of: B6
Conditions: with cc070_human C3orf70, A6NLC5
Remark: another data set of the same source

Variant | effect of a mutation on the interaction
R361H | with no effect

Variants of: B6
Conditions: with cc070_human C3orf70, A6NLC5
Remark: another data set of the same source

Variant | effect of a mutation on the interaction
G386D | with no effect

Variants of: B6
Conditions: with cc070_human C3orf70, A6NLC5
Remark: another data set of the same source

Variant | effect of a mutation on the interaction
D351H | with no effect

Variants of: B7
Conditions: with tet5c_human TENT5C

Variant | effect of a mutation on the interaction
D351H | with no effect

Variants of: B7
Conditions: with tet5c_human TENT5C
Remark: another data set of the same source

Variant | effect of a mutation on the interaction
G386D | with no effect

Variants of: B7
Conditions: with tet5c_human TENT5C
Remark: another data set of the same source

Variant | effect of a mutation on the interaction
R361H | with no effect
